Assay type in all cases: biochemical, Metallosphaera sedula
Substrate in series [1]: C[C@H](O)CC(=O)SCCNC(=O)CCNC(=O)[C@H](O)C(C)(C)COP(=O)(O)OP(=O)(O)OC[C@H]1O[C@@H](n2cnc3c(N)ncnc32)[C@H](O)[C@@H]1OP(=O)(O)O
Nature of the series: (S)-3-hydroxybutyryl-CoA dehydrogenase assay. The following applies: 0.5 mM NAD, 65 °C, apparent Km. From the text:
(§1) (S)-3-hydroxybutyryl-CoA dehydrogenase assay on (S)-3-hydroxybutyryl-CoA dehydrogenase Msed_1423

Substrate in series [2]: NC(=O)c1ccc[n+]([C@@H]2O[C@H](COP(=O)(O)OP(=O)(O)OC[C@H]3O[C@@H](n4cnc5c(N)ncnc54)[C@H](O)[C@@H]3O)[C@@H](O)[C@H]2O)c1
Nature of the series: (S)-3-hydroxybutyryl-CoA dehydrogenase assay. Particulars: with (S)-3-hydroxybutyryl-CoA, 65 °C, apparent Km, varied: cofactor.
From the text: as §1

Substrate in series [3]: NC(=O)c1ccc[n+]([C@@H]2O[C@H](COP(=O)(O)OP(=O)(O)OC[C@H]3O[C@@H](n4cnc5c(N)ncnc54)[C@H](OP(=O)(O)O)[C@@H]3O)[C@@H](O)[C@H]2O)c1
Nature of the series: (S)-3-hydroxybutyryl-CoA dehydrogenase assay. Particulars: with (S)-3-hydroxybutyryl-CoA, 65 °C, apparent Km, varied: cofactor.
From the text: as §1

Substrate in series [4]: CCCCC/C=C/C(=O)SCCNC(=O)CCNC(=O)[C@H](O)C(C)(C)COP(=O)(O)OP(=O)(O)OC[C@H]1O[C@@H](n2cnc3c(N)ncnc32)[C@H](O)[C@@H]1OP(=O)(O)O
Nature of the series: UHPLC, 3-hydroxyoctanoyl-CoA formation. The following applies: hydratase reaction, 65 °C, apparent Km, buffer in general 100 mM Tris-HCl pH 7.8. From the text: UHPLC, 3-hydroxyoctanoyl-CoA formation on crotonyl-CoA hydratase/(S)-3-hydroxybutyryl-CoA dehydrogenase Msed_0399

Substrate in series [5]: C/C=C/C(=O)SCCNC(=O)CCNC(=O)[C@H](O)C(C)(C)COP(=O)(O)OP(=O)(O)OC[C@H]1O[C@@H](n2cnc3c(N)ncnc32)[C@H](O)[C@@H]1OP(=O)(O)O
As to the kind of experiment: UHPLC, 3-hydroxybutyryl-CoA formation. The following applies: hydratase reaction, 100 mM Tris-HCl pH 9, 65 °C, apparent Km. From the text:
UHPLC, 3-hydroxybutyryl-CoA formation on crotonyl-CoA hydratase/(S)-3-hydroxybutyryl-CoA dehydrogenase Msed_0399

Substrate in series [6]: CC(C)(COP(=O)(O)OP(=O)(O)OC[C@H]1O[C@@H](n2cnc3c(N)ncnc32)[C@H](O)[C@@H]1OP(=O)(O)O)[C@@H](O)C(=O)NCCC(=O)NCCSC(=O)CCO
Nature of the series: Ccr-coupled assay, acryloyl-CoA formation, UHPLC. Particulars: dehydratase reaction, 100 mM MOPS/KOH pH 7.0, 42 °C, 1 mM NADPH and NaHCO3 for coupling enzyme, apparent Km. From the text: Ccr-coupled assay, acryloyl-CoA formation, UHPLC on crotonyl-CoA hydratase/(S)-3-hydroxybutyryl-CoA dehydrogenase Msed_0399

Substrate in series [7]: C[C@H](O)CC(=O)SCCNC(=O)CCNC(=O)[C@H](O)C(C)(C)COP(=O)(O)OP(=O)(O)OC[C@H]1O[C@@H](n2cnc3c(N)ncnc32)[C@H](O)[C@@H]1OP(=O)(O)O
As to the kind of experiment: (S)-3-hydroxybutyryl-CoA dehydrogenase assay with NAD. Particulars: dehydrogenase reaction with NAD, 65 °C, apparent Km. From the text: (S)-3-hydroxybutyryl-CoA dehydrogenase assay with NAD on crotonyl-CoA hydratase/(S)-3-hydroxybutyryl-CoA dehydrogenase Msed_0399

Substrate in series [8]: C[C@H](O)CC(=O)SCCNC(=O)CCNC(=O)[C@H](O)C(C)(C)COP(=O)(O)OP(=O)(O)OC[C@H]1O[C@@H](n2cnc3c(N)ncnc32)[C@H](O)[C@@H]1OP(=O)(O)O
As to the kind of experiment: (S)-3-hydroxybutyryl-CoA dehydrogenase assay. The following applies: 0.5 mM NAD, 65 °C, apparent Km. From the text: (§2) (S)-3-hydroxybutyryl-CoA dehydrogenase assay on (S)-3-hydroxybutyryl-CoA dehydrogenase Msed_0389
The source holds these as a separate data set.

Substrate in series [9]: NC(=O)c1ccc[n+]([C@@H]2O[C@H](COP(=O)(O)OP(=O)(O)OC[C@H]3O[C@@H](n4cnc5c(N)ncnc54)[C@H](O)[C@@H]3O)[C@@H](O)[C@H]2O)c1
As to the kind of experiment: (S)-3-hydroxybutyryl-CoA dehydrogenase assay. The following applies: with (S)-3-hydroxybutyryl-CoA, 65 °C, apparent Km, varied: cofactor.
From the text: as §2
The source holds these as a separate data set.

Substrate in series [10]: NC(=O)c1ccc[n+]([C@@H]2O[C@H](COP(=O)(O)OP(=O)(O)OC[C@H]3O[C@@H](n4cnc5c(N)ncnc54)[C@H](OP(=O)(O)O)[C@@H]3O)[C@@H](O)[C@H]2O)c1
Nature of the series: (S)-3-hydroxybutyryl-CoA dehydrogenase assay. Particulars: with (S)-3-hydroxybutyryl-CoA, 65 °C, apparent Km, varied: cofactor.
From the text: as §2
The source holds these as a separate data set.

Substrate in series [11]: C=C(C)C(=O)SCCNC(=O)CCNC(=O)[C@H](O)C(C)(C)COP(=O)(O)OP(=O)(O)OC[C@H]1O[C@@H](n2cnc3c(N)ncnc32)[C@H](O)[C@@H]1OP(=O)(O)O
Nature of the series: UHPLC, 3-hydroxy-2-methylpropionyl-CoA formation. Particulars: hydratase reaction, 100 mM Tris-HCl pH 7.8, 65 °C, apparent Km. From the text: UHPLC, 3-hydroxy-2-methylpropionyl-CoA formation on crotonyl-CoA hydratase Msed_0336

Substrate in series [12]: C[C@H](O)CC(=O)SCCNC(=O)CCNC(=O)[C@H](O)C(C)(C)COP(=O)(O)OP(=O)(O)OC[C@H]1O[C@@H](n2cnc3c(N)ncnc32)[C@H](O)[C@@H]1OP(=O)(O)O
As to the kind of experiment: Ccr-coupled dehydratase assay, UHPLC. Particulars: dehydratase reaction, 100 mM Tris-HCl pH 7.8, 42 °C, 1 mM NADPH and NaHCO3 for coupling enzyme, apparent Km. From the text: Ccr-coupled dehydratase assay, UHPLC on crotonyl-CoA hydratase Msed_0336

Substrate in series [13]: C=CC(=O)SCCNC(=O)CCNC(=O)[C@H](O)C(C)(C)COP(=O)(O)OP(=O)(O)OC[C@H]1O[C@@H](n2cnc3c(N)ncnc32)[C@H](O)[C@@H]1OP(=O)(O)O
Nature of the series: UHPLC, 3-hydroxypropionyl-CoA formation. Particulars: hydratase reaction, 100 mM Tris-HCl pH 7.8, 65 °C, apparent Km. From the text: UHPLC, 3-hydroxypropionyl-CoA formation on crotonyl-CoA hydratase Msed_0336

Substrate in series [14]: C/C=C/C(=O)SCCNC(=O)CCNC(=O)[C@H](O)C(C)(C)COP(=O)(O)OP(=O)(O)OC[C@H]1O[C@@H](n2cnc3c(N)ncnc32)[C@H](O)[C@@H]1OP(=O)(O)O
Nature of the series: UHPLC, 3-hydroxybutyryl-CoA formation. Particulars: hydratase reaction, 100 mM Tris-HCl pH 7.8, 65 °C, apparent Km. From the text: UHPLC, 3-hydroxybutyryl-CoA formation on crotonyl-CoA hydratase Msed_0336

Substrate in series [15]: CCCCC/C=C/C(=O)SCCNC(=O)CCNC(=O)[C@H](O)C(C)(C)COP(=O)(O)OP(=O)(O)OC[C@H]1O[C@@H](n2cnc3c(N)ncnc32)[C@H](O)[C@@H]1OP(=O)(O)O
Nature of the series: UHPLC, 3-hydroxyoctanoyl-CoA formation. Particulars: hydratase reaction, 100 mM Tris-HCl pH 7.8, 65 °C, apparent Km. From the text:
UHPLC, 3-hydroxyoctanoyl-CoA formation on crotonyl-CoA hydratase Msed_0336

B1: (S)-3-hydroxybutyryl-CoA dehydrogenase Msed_1423 (Metallosphaera sedula DSM 5348) (protein)
chain: MRIAVVGSGTMGHGIAEVAAMAGMEVKLIDISWDILNRAKERMYDSLKRLHERGTIRETPDTVMSRIEISVSYDVAKDVDFAIEAVPEILELKRKVFQELDRVVPKESILATNTSSIPISDIGEITSRKEKVIGMHFFNPPPLMKLVEVIPSKYTSEDVTRYTVELAKKMGKTPVRLRVEVPGFVSNRIFLRLLQEACREVESGEATIEEVDSSARNKLKLPMGIFELADYVGLDVAVDLWKVIVERGASDVKCSSYKERVDRKELGVKTGKGFYTYPAPGKYSKVSLPPESKVPPERIISLAVNEGAWLIENNIVNAEEIDTVMRLGFNFPKGLLEMADELGLDKILNALREIHSRGYEAYSPNPLLVKMVSQGQTGKSSGRGFYTYGKT
notes: full-length, N-terminal His10-tag (pET16b), recombinant in E. coli Rosetta 2 (DE3)
What is called Km is the substrate concentration at which the rate is half of its maximum. Take B1: the Michaelis-Menten constant (Km) in [1] was determined as 5 ± 2 µM; in series [2], 30 ± 3 µM; in series [3], 5100 ± 500 µM.

B2: crotonyl-CoA hydratase/(S)-3-hydroxybutyryl-CoA dehydrogenase Msed_0399 (Metallosphaera sedula DSM 5348) (protein)
chain: MKVTVIGSGVMGHGIAELAAIAGNEVWMNDISTEILQQAMERIKWSLSKLRESGSLKEGVEQVLARIHPETDQAQALKGSDFVIEAVKEDLELKRTIFRNAEAHASPSAVLATNTSSLPISEIASVLKSPQRVVGMHFFNPPVLMPLVEIVRGKDTSDEVVKTTAEMAKSMNKETIVVKDVPGFFVNRVLLRIMEAGCYLVEKGIASIQEVDSSAIEELGFPMGVFLLADYTGLDIGYSVWKAVTARGFKAFPCSSTEKLVSQGKLGVKSGSGYYQYPSPGKFVRPTLPSTSKKLGRYLISPAVNEVSYLLREGIVGKDDAEKGCVLGLGLPKGILSYADEIGIDVVVNTLEEMRQTSGMDHYSPDPLLLSMVKEGKLGRKSGQGFHTYAHEEAKYSTIVVRVEPPLAWIVLNRPTRYNAINGDMIREINQALDSLEEREDVRVIAITGQGRVFSAGADVTEFGSLTPVKAMIASRKFHEVFMKIQFLTKPVIAVINGLALGGGMELALSADFRVASKTAEMGQPEINLGLIPGGGGTQRLSRLSGRKGLELVLTGRRVKAEEAYRLGIVEFLAEPEELESEVRKLANAIAEKSPLAVASAKLAYKLGEETHIWTGTSLEASLFGLLFSTKDFEEGVRAFLEKRKPNFRGE
notes: full-length, untagged, recombinant in E. coli Rosetta 2 (DE3); N-terminal dehydrogenase domain (~40 kDa), C-terminal enoyl-CoA hydratase domain (~20 kDa)
Regarding B2, the Km in [4] came to 80 ± 10 µM; in series [5] it was 970 ± 70 µM; in series [6], 60 ± 20 µM; in [7], 120 ± 10 µM.

B3: (S)-3-hydroxybutyryl-CoA dehydrogenase Msed_0389 (Metallosphaera sedula DSM 5348) (protein)
chain: MKVFVIGSGVMGSGIGQVFAMAGHEVTLYDVKEEALKKAMEGIRWSLQKLQEKGSVKDVESVLSRIFTSRDLSEARDHLVIEAVFEDIKVKSDVLGRVSPLTDEIIASNTSSLPITELSRAVRNPERFLGMHFFNPPVLMKLVEVIRGDNTSEERFREALDIVKSLGKYPLPVRKDVFGFVVNRILFRLFTSACALLTQYTPHEIDYVAIKELGMPMGLIMLLDYTGLDVNYDISKEAERRGFPFKCDVLEGMVKSGKLGRKSGQGFYDWSKGKPEVKATSGPDPRELLRGAVEEAKWLISQGVVTREELETGLKLGLGMSRGILELGEILGVH
notes: as for B1
Regarding B3, the Km in series [8] amounted to 2.6 ± 1 µM; in [9], 12 ± 2 µM; in series [10] it was 1500 ± 300 µM.

B4: crotonyl-CoA hydratase Msed_0336 (Metallosphaera sedula DSM 5348) (protein)
chain: MKVLYEERDGISWITFNRPEKLNALDAESWKLLGDHVRRGDSSDSRAIVITGNGRAFSSGDDIGSMTSLNDQREAEDFFNALLYAVDGLIYTNKPVIGAVNGLAYGGGCEILLFMDVVISTRSARFSIPEGRLGLIPPMALSVGYNSIGRSVAWLAITGEEIDAMRAKEIGLVDIVGDDLNLELEKVMARISSMDQGSIKVIKAWLRKSREPIREAIRELSFMSLSTQAKERMKRFLSR
notes: as for B1
As to B4, the Km came out at 290 ± 50 µM in series [11]; 70 ± 20 µM in series [12]; 70 ± 5 µM in series [13]; 80 ± 10 µM in [14]; 90 ± 10 µM in series [15].

For the origin of these results see article PMC7078158, “Enzymes Catalyzing Crotonyl-CoA Conversion to Acetoacetyl-CoA During the Autotrophic CO2 Fixation in Metallosphaera sedula” (Frontiers in Microbiology, 2020).
